From US20220242952A1 (MorphoSys, published 2022)
“And” between values parts separate entries of the source, which are not always exact repeats. Identical values can stand only once.

Assays:
CD19 [1] = target: T1, CD19 (human, UniProt P15391 20-556); test: flow cytometry, QuantiBRITE PE quantitation, JVM-2 (MCL) cells
T1 sequence: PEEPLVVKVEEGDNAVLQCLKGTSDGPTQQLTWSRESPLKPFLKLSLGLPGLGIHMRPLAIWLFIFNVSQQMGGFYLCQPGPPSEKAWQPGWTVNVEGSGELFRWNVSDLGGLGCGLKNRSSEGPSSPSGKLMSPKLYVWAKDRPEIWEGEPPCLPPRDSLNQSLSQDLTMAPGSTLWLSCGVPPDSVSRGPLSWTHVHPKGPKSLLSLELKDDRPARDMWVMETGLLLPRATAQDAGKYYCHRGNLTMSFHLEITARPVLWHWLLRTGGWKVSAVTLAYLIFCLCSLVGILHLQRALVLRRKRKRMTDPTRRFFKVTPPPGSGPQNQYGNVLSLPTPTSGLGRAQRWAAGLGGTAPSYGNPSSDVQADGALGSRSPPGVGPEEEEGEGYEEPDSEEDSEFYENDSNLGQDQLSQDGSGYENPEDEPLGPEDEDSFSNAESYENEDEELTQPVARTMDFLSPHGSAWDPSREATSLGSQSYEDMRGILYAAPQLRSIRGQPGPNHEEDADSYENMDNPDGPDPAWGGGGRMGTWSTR

CD19 [2] = target: T1, CD19; test: flow cytometry, QuantiBRITE PE quantitation, MEC-1 (CLL) cells
CD19 [3] = target: T1, CD19; test: flow cytometry, QuantiBRITE PE quantitation, Toledo (DLBCL) cells
CD20 [4] = target: CD20 (UniProt P11836); test: flow cytometry, QuantiBRITE PE quantitation, JVM-2 (MCL) cells
CD20 [5] = target: CD20 (UniProt P11836); test: flow cytometry, QuantiBRITE PE quantitation, MEC-1 (CLL) cells
CD20 [6] = target: CD20 (UniProt P11836); test: flow cytometry, QuantiBRITE PE quantitation, Toledo (DLBCL) cells
CD20 [7] = target: CD20 (UniProt P11836); test: cell-based or functional assay
CD19 [8] = target: T1, CD19; test: cell-based or functional assay

Sequence of CD20 (P11836 whole entry): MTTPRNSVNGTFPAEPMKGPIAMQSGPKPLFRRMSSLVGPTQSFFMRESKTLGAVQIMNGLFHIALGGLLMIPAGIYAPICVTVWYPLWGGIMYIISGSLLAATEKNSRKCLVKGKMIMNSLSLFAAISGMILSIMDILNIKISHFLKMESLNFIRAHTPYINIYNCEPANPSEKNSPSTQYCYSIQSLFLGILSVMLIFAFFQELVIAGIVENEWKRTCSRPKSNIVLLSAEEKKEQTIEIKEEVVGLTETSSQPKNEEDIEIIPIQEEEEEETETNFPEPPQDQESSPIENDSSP

Work on “Biolegend CD19-PE (Biolegend #302208; clone HIB19) (antibody)” yielded an antibodies bound per cell (ABC) (antibodies bound per cell) (CD19 [1]) of 26200, an antibodies bound per cell (ABC) (antibodies bound per cell) (CD19 [2]) of 60900 and an antibodies bound per cell (ABC) (antibodies bound per cell) (CD19 [3]) of 35700.

Work on “Biolegend CD20-PE (Biolegend #302306; clone 2H7) (antibody)” yielded an antibodies bound per cell (ABC) (antibodies bound per cell) (CD20 [4]) of 15500, an antibodies bound per cell (ABC) (antibodies bound per cell) (CD20 [5]) of 71300 and an antibodies bound per cell (ABC) (antibodies bound per cell) (CD20 [6]) of 28000.

In the case of Rituximab (antibody), the % specific killing, ADCC with NK cells, JVM-2 cells, E:T 0.1:1, 10 ug/ml antibody (CD20 [7]) is reported as 0.5%, the % specific killing, ADCC with NK cells, JVM-2 cells, E:T 3:1 and 6:1, 10 ug/ml antibody (CD20 [7]) is reported as 39% and 48% and the % specific killing, ADCC with NK cells, MEC-1 cells, E:T 0.1:1, 10 ug/ml antibody (CD20 [7]) is reported as 3%. The % specific killing, ADCC with NK cells, Toledo cells, E:T 0.1:1, 10 ug/ml antibody (CD20 [7]) was 3% and the % specific killing, ADCC with NK cells, Toledo cells, the two higher E:T ratios, 10 ug/ml antibody (CD20 [7]) was 60%.

B1: MOR00208 (antibody, human IgG1, kappa, V domains shown)
VH: EVQLVESGGGLVKPGGSLKLSCAASGYTFTSYVMHWVRQAPGKGLEWIGYINPYNDGTKYNEKFQGRVTISSDKSISTAYMELSSLRSEDTAMYYCARGTYYYGTRVFDYWGQGTLVTVSS
VL: DIVMTQSPATLSLSPGERATLSCRSSKSLQNVNGNTYLYWFQQKPGQSPQLLIYRMSNLNSGVPDRFSGSGSGTEFTLTISSLEPEDFAVYYCMQHLEYPITFGAGTKLEIKR
In the case of B1, the “% specific killing, ADCC with NK cells, Toledo cells, the two higher E:T ratios, 10 ug/ml antibody” value (CD19 [8]) is reported as about 60%, the “specific killing ratio compared to Rituximab, individual donor 296, JVM-2 cells, lowest E:T ratio” value (CD19 [8]) is reported as at most 20 fold and the “specific killing ratio compared to Rituximab, individual donor 299, Toledo cells, lowest E:T ratio” value (CD19 [8]) is reported as at most 30 fold. For the same molecule, the “specific killing ratio normalized to Rituximab, JVM-2 cells, E:T 0.1:1, median of donors” value (CD19 [8]) was 5.3 fold, the “specific killing ratio normalized to Rituximab, Toledo cells, E:T 0.1:1, median of donors” value (CD19 [8]) was 2.5 fold and the “specific killing ratio over Rituximab, MEC-1 cells, E:T 0.1:1, average of 17 donors” value (CD19 [8]) was 1.6 fold.
